In assay [1] the target is T1, human BCMA on myeloma cells (H929, U266, patient bone marrow myeloma plasma cells) (human, UniProt Q02223 1-184).
T1 sequence (looked up): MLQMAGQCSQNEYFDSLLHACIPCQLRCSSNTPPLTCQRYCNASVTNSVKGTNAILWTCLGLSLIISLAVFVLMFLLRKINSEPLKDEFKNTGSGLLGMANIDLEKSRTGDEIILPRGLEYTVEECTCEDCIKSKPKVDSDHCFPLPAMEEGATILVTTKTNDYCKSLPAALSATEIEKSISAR
In words: cell-based or functional assay.

In assay [2] the target is T1, human BCMA on myeloma cells (H929, …). Put plainly: cell-based or functional assay. The source holds these as a separate data set.

From patent US20170327579A1 (ENGMAB, published 2017) come the findings set out here.

B1: pSCHLI333-TCB CLC (bispecific antibody)
heavy 1: not shown
heavy 2: QVQLVQSGAEVKKPGASVKVSCKASGYMFSSFGMSWVRQAPGQGLEWMGWIYPVGQGTWYAQKFQGRVTMTRDTSTSTVYMELSSLRSEDTAVYYCARVSYPPSHFDYWGQGTLVTVSSASTKGPSVFPLAPSSKSTSGGTAALGCLVKDYFPEPVTVSWNSGALTSGVHTFPAVLQSSGLYSLSSVVTVPSSSLGTQTYICNVNHKPSNTKVDKKVEPKSCDKTHTCPPCPAPEAAGGPSVFLFPPKPKDTLMISRTPEVTCVVVDVSHEDPEVKFNWYVDGVEVHNAKTKPREEQYNSTYRVVSVLTVLHQDWLNGKEYKCKVSNKALGAPIEKTISKAKGQPREPQVCTLPPSRDELTKNQVSLSCAVKGFYPSDIAVEWESNGQPENNYKTTPPVLDSDGSFFLVSKLTVDKSRWQQGNVFSCSVMHEALHNHYTQKSLSLSPGK
light: QAVVTQEPSLTVSPGGTVTLTCGSSTGAVTTSNYANWVQEKPGQAFRGLIGGTNKRAPGTPARFSGSLLGGKAALTLSGAQPEDEAEYYCALWYSNLWVFGGGTKLTVLGQPKAAPSVTLFPPSSEELQANKATLVCLISDFYPGAVTVAWKADSSPVKAGVETTTPSKQSNNKYAASSYLSLTPEQWKSHRSYSCQVTHEGSTVEKTVAPTECS
For the molecule B1, in assay [1], the “EC50 (pM) for redirected T-cell killing of H929 cells (LDH release)” value stood at 980 pM and the “EC50 (µg/ml) for redirected T-cell killing of H929 cells (LDH release)” value came to 0.19 µg/mL.

B2: pSCHLI372-TCB CLC (bispecific antibody)
heavy 1: not shown
heavy 2: EVQLVESGGGLVKPGGSLRLSCAASGFTFSNSGMIWVRQAPGKGLEWVGHIRSKTDGGTTDYAAPVKGRFTISRDDSKNTLYLQMNSLKTEDTAVYYCTTGGSGSFDYWGQGTLVTVSSASTKGPSVFPLAPSSKSTSGGTAALGCLVKDYFPEPVTVSWNSGALTSGVHTFPAVLQSSGLYSLSSVVTVPSSSLGTQTYICNVNHKPSNTKVDKKVEPKSCDKTHTCPPCPAPEAAGGPSVFLFPPKPKDTLMISRTPEVTCVVVDVSHEDPEVKFNWYVDGVEVHNAKTKPREEQYNSTYRVVSVLTVLHQDWLNGKEYKCKVSNKALGAPIEKTISKAKGQPREPQVCTLPPSRDELTKNQVSLSCAVKGFYPSDIAVEWESNGQPENNYKTTPPVLDSDGSFFLVSKLTVDKSRWQQGNVFSCSVMHEALHNHYTQKSLSLSPGK
light: QAVVTQEPSLTVSPGGTVTLTCGSSTGAVTTSNYANWVQEKPGQAFRGLIGGTNKRAPGTPARFSGSLLGGKAALTLSGAQPEDEAEYYCALWYSNLWVFGGGTKLTVLGQPKAAPSVTLFPPSSEELQANKATLVCLISDFYPGAVTVAWKADSSPVKAGVETTTPSKQSNNKYAASSYLSLTPEQWKSHRSYSCQVTHEGSTVEKTVAPTECS
As for B2, in assay [1], the “EC50 (pM) for redirected T-cell killing of H929 cells (LDH release), Experiment 1” value is 450 pM; the “EC50 (pM) for redirected T-cell killing of H929 cells (LDH release), Experiment 2” value stood at 900 pM; the “EC50 (µg/ml) for redirected T-cell killing of H929 cells (LDH release), Experiment 1” value was found to be 0.08 µg/mL; the “EC50 (µg/ml) for redirected T-cell killing of H929 cells (LDH release), Experiment 2” value amounted to 0.17 µg/mL. Besides, in assay [2], the “EC50 (pM) for redirected T-cell killing of U266 cells (LDH release)” value worked out at 5700 pM and the “EC50 (µg/ml) for redirected T-cell killing of U266 cells (LDH release)” value was found to be 1.1 µg/mL.
